Data from US20210261671A1 (HARPOON THERAPEUTICS, published 2021).
Values belong to the binder of their own block, whether it stands above or below them.

How the values were obtained:
human FLT3 protein [1] = molecular target: T1, human FLT3 protein (human, UniProt P36888 27-541, limits assumed); assay: colorimetric ELISA, periplasmic extract
T1 construct: protein coated in the screening ELISA; also called ELISA FLT3
From the text: (§1) Llamas were immunized with purified FLT3 protein expressed in Expi293 cells. A phage display library for expression of heavy variable antibody domains was constructed from circulating B cells isolated from the immunized llamas (See van der Linden, de Geus, Stok, Bos, van Wassenaar, Verrips, and Frenken. 2000. J Immunol Methods 240:185-195). Phage clones were screened for binding to FLT3 by expressing llama anti-FLT3 proteins in E. coli, preparing periplasmic extracts, and performing colorimetric ELISAs.

human FLT3 protein [2] = molecular target: T1, human FLT3 protein; assay: colorimetric ELISA, signal over control wells lacking FLT3
From the text: as §1

[3] = molecular target: T2, anti-FLT3/anti-albumin/anti-CD3 multispecific protein containing humanized FLH19C; assay: biolayer interferometry (data not shown)
T2 construct: trispecific single-chain fusion with His6; purified from CHO conditioned medium
T2 sequence (chain, as listed by the source): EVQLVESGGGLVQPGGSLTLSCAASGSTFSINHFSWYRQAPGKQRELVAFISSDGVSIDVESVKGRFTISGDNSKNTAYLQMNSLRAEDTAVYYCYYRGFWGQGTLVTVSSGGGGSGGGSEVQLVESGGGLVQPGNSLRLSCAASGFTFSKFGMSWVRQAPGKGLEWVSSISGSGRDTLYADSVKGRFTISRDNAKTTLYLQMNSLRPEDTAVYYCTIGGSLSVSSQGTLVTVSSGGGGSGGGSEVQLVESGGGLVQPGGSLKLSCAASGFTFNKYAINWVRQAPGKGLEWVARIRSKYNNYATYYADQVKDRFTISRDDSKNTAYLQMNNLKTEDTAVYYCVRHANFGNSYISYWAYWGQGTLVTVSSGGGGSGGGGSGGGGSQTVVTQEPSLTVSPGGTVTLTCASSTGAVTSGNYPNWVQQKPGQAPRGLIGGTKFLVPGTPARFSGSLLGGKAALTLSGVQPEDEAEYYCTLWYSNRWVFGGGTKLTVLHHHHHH

[4] = molecular target: T3, anti-FLT3/anti-albumin/anti-CD3 multispecific protein containing FLL153; assay: BLI (Octet), conditioned medium, single 50 nM concentration (relative affinity)
T3 construct: trispecific single-chain fusion with His6; Expi293 conditioned medium
Experimental: (§2) Additional affinity determinations were performed using conditioned media from Example 2 with known concentrations of anti-FLT3/anti-CD3 multispecific proteins. […] An Octet instrument with streptavidin tips were loaded with biotinylated human or cynomolgus FLT3 protein, and KD values for binding FLT3 were calculated by measuring the on rate and off rate of binding of anti-FLT3/anti-CD3 multispecific proteins to the biotinylated FLT3 proteins.

[5] = molecular target: T4, anti-FLT3/anti-albumin/anti-CD3 multispecific protein containing FLL8; assay: as above
T4 construct: trispecific single-chain fusion with His6; Expi293 conditioned medium
Experimental: as §2

[6] = molecular target: T5, anti-FLT3/anti-albumin/anti-CD3 multispecific protein containing FLL92; assay: as above
T5 construct: trispecific single-chain fusion with His6; Expi293 conditioned medium
Experimental: as §2

[7] = molecular target: T6, anti-FLT3/anti-albumin/anti-CD3 multispecific protein containing FLL134; assay: as above
T6 construct: trispecific single-chain fusion with His6; Expi293 conditioned medium
Experimental: as §2

[8] = molecular target: T7, anti-FLT3/anti-albumin/anti-CD3 multispecific protein containing FLL41; assay: as above
T7 construct: trispecific single-chain fusion with His6; Expi293 conditioned medium
T7 sequence (chain, as listed by the source): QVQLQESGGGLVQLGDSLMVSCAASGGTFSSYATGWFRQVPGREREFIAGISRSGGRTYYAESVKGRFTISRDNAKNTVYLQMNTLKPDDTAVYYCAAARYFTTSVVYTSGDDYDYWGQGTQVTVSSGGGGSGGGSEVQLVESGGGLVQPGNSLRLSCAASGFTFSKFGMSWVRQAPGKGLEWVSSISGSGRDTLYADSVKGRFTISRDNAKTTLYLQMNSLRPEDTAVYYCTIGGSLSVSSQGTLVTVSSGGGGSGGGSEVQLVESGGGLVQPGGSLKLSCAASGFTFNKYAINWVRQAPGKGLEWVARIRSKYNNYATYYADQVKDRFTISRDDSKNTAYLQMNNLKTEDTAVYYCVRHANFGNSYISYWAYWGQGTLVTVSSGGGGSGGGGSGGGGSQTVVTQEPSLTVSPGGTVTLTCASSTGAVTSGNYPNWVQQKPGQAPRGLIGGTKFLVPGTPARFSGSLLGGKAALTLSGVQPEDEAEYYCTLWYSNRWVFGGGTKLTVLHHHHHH
Experimental: as §2

[9] = molecular target: T8, anti-FLT3/anti-albumin/anti-CD3 multispecific protein containing FLL71; assay: as above
T8 construct: trispecific single-chain fusion with His6; Expi293 conditioned medium
Experimental: as §2

[10] = molecular target: T9, anti-FLT3/anti-albumin/anti-CD3 multispecific protein containing humanized FLH92b; assay: BLI (Octet), biotinylated FLT3 on streptavidin tips
T9 construct: trispecific single-chain fusion with His6; purified from CHO conditioned medium
T9 sequence (chain, as listed by the source): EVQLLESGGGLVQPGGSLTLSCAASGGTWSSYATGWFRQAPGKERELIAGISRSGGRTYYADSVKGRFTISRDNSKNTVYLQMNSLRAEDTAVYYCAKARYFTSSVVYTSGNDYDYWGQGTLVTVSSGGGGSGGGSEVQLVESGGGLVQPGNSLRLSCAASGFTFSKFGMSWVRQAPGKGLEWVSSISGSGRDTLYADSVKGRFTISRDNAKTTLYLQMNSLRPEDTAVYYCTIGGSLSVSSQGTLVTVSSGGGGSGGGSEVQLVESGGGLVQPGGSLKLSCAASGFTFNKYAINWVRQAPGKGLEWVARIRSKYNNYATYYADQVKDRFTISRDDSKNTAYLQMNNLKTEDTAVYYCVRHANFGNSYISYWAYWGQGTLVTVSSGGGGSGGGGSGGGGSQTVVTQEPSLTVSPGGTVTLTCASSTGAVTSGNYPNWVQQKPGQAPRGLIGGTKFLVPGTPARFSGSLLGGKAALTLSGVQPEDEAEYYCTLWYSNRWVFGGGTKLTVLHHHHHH
Experimental: (§3) The affinities of the purified multispecific proteins for human and cynomolgus FLT3 were measured with an Octet instrument with streptavidin tips were loaded with biotinylated human or cynomolgus FLT3 protein. The tips were then incubated with solutions containing 50, 16.7, 5.6, or 1.9 nM of the multispecific protein. Affinities (KD), listed in Table 7, were calculated by measuring the on rate and off rate of binding of anti-FLT3/anti-albumin/anti-CD3 multispecific proteins to the captured biotinylated FLT3 proteins.

[11] = molecular target: T10, anti-FLT3/anti-albumin/anti-CD3 multispecific protein containing humanized FLH4; assay: as above
T10 construct: trispecific single-chain fusion with His6; purified from CHO conditioned medium
T10 sequence (chain, as listed by the source): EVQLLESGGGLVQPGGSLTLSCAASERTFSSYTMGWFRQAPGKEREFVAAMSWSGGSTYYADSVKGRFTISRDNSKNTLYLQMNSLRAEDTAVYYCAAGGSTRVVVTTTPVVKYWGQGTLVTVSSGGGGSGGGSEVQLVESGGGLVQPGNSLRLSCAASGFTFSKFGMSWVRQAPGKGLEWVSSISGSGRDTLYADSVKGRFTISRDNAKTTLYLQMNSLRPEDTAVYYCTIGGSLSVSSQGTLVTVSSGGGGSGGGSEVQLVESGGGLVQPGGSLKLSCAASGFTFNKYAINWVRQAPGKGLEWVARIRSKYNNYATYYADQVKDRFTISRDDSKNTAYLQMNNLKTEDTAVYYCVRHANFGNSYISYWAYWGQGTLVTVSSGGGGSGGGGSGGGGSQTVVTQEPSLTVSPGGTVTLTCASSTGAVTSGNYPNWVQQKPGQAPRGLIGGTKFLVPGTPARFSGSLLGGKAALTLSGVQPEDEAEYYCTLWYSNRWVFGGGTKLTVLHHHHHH
Experimental: as §3

[12] = molecular target: T11, anti-FLT3/anti-albumin/anti-CD3 multispecific protein containing humanized FLH141; assay: as above
T11 construct: trispecific single-chain fusion with His6; purified from CHO conditioned medium
T11 sequence (chain, as listed by the source): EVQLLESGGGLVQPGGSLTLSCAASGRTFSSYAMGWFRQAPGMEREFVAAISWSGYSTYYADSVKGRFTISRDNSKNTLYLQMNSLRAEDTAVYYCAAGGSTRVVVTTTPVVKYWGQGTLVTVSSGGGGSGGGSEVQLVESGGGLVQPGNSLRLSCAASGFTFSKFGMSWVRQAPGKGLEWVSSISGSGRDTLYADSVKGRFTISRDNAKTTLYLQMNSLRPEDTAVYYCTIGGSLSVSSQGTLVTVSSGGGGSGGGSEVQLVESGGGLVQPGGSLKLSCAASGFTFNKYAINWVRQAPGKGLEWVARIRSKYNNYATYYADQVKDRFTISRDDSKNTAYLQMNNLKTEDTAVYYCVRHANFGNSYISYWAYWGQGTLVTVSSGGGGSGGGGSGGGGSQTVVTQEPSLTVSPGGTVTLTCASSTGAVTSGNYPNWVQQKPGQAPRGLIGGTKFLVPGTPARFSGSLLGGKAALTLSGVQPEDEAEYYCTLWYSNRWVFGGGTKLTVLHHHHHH
Experimental: as §3

[13] = molecular target: T12, anti-FLT3/anti-albumin/anti-CD3 multispecific protein containing humanized FLH107; assay: as above
T12 construct: trispecific single-chain fusion with His6; purified from CHO conditioned medium
T12 sequence (chain, as listed by the source): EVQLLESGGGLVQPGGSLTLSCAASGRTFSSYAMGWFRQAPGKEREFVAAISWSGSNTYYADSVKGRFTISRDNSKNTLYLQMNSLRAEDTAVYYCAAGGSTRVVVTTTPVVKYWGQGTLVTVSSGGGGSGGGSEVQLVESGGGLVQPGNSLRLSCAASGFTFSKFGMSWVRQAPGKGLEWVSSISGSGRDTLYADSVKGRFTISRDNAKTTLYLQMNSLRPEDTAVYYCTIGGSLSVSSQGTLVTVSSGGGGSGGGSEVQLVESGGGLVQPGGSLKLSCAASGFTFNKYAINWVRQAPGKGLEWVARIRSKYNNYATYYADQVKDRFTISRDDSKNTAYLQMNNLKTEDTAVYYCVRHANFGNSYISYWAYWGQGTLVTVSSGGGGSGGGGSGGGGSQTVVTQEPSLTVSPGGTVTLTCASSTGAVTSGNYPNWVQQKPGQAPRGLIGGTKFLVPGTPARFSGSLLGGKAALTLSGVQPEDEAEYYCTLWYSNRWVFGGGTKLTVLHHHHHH
Experimental: as §3

[14] = molecular target: T13, anti-FLT3/anti-albumin/anti-CD3 multispecific protein containing humanized FLH92a; assay: as above
T13 construct: trispecific single-chain fusion with His6; purified from CHO conditioned medium
T13 sequence (chain, as listed by the source): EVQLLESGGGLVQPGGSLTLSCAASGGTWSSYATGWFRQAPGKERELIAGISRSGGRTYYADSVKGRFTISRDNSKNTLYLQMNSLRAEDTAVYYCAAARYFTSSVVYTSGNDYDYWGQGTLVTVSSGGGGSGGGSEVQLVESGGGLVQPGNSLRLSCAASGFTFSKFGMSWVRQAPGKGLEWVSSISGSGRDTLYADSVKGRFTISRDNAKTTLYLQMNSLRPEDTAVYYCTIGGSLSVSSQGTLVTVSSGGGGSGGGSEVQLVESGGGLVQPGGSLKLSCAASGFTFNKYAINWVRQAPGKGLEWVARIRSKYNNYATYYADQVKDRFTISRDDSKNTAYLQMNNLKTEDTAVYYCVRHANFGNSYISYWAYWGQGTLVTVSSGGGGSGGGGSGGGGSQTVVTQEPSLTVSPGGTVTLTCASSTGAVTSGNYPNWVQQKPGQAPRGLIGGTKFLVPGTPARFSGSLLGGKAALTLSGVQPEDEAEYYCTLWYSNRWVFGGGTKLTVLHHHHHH
Experimental: as §3

[15] = molecular target: T14, anti-FLT3/anti-albumin/anti-CD3 multispecific protein containing humanized FLH34; assay: as above
T14 construct: trispecific single-chain fusion with His6; purified from CHO conditioned medium
T14 sequence (chain, as listed by the source): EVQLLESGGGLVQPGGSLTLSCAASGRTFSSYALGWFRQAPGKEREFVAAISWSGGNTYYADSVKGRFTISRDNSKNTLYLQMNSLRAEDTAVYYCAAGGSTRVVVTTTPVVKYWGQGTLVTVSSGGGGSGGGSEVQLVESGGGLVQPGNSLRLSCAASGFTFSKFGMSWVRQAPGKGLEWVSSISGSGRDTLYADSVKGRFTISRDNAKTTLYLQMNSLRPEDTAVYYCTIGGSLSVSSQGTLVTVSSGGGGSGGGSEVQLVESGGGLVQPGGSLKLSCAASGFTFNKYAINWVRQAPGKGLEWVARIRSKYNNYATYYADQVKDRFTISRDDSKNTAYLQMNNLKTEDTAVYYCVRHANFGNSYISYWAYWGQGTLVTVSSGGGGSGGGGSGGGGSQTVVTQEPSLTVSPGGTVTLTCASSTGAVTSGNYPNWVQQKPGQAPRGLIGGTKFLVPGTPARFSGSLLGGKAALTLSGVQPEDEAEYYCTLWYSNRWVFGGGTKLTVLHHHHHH
Experimental: as §3

[16] = molecular target: T15, anti-FLT3/anti-albumin/anti-CD3 multispecific protein containing humanized FLH78; assay: as above
T15 construct: trispecific single-chain fusion with His6; purified from CHO conditioned medium
T15 sequence (chain, as listed by the source): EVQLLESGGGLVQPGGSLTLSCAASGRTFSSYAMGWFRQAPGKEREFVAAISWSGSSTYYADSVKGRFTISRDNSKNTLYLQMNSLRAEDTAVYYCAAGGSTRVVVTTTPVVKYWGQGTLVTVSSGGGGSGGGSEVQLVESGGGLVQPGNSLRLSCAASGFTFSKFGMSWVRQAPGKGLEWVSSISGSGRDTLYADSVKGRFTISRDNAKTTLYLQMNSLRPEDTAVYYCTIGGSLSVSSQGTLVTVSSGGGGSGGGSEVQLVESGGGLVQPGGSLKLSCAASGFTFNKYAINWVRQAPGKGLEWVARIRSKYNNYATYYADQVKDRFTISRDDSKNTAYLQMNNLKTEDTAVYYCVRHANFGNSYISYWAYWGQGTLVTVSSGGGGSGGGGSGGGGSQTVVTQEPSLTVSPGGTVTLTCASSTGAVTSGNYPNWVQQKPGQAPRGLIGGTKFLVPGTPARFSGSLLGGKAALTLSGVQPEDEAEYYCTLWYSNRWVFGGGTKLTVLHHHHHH
Experimental: as §3

[17] = molecular target: T2, anti-FLT3/anti-albumin/anti-CD3 …; assay: as above
Experimental: as §3

ELISA FLT3 (absorbance) (human FLT3 protein [1]): 1.4 absorbance
FLT3/control (human FLT3 protein [2]): 15 ratio
B1: FLL153 (VHH)
VHH: QVQLQESGGGLVQVGGSLMVSCAASGGTFSSYATGWFRQVPGKEREFIAGVSRNSGRTYYAESVKGRFTISRDNAKNTVYLQMNTLKPDDTGVYYCAAARYFTRDAVYTSGDDYDYWGQGTQVTVSS
notes: llama anti-FLT3 variable domain; E. coli periplasmic extract

ELISA FLT3 (absorbance) (human FLT3 protein [1]): 1.3 absorbance
FLT3/control (human FLT3 protein [2]): 15 ratio
B2: FLL134 (VHH)
VHH: QVQLQESGGGLVQPGGSLRLSCAASGGTFSSYATGWFRQVPGKEREFIAGISRNSGRTYAESVKGRFTISRDNAKNTVYLQMNTLRPDDTAVYYCAAARYFTRDAIYTSGDDYDYWGQGTQVTASS
notes: as for B1

Kd [3]: 4.4 nM
B3: cynomolgus serum albumin (other, cynomolgus monkey, UniProt A2V9Z4 25-608, looked up)
chain: DTHKSEVAHRFKDLGEEHFKGLVLVAFSQYLQQCPFEEHVKLVNEVTEFAKTCVADESAENCDKSLHTLFGDKLCTVATLRETYGEMADCCAKQEPERNECFLQHKDDNPNLPPLVRPEVDVMCTAFHDNEATFLKKYLYEVARRHPYFYAPELLFFAARYKAAFAECCQAADKAACLLPKLDELRDEGKASSAKQRLKCASLQKFGDRAFKAWAVARLSQKFPKAEFAEVSKLVTDLTKVHTECCHGDLLECADDRADLAKYMCENQDSISSKLKECCDKPLLEKSHCLAEVENDEMPADLPSLAADYVESKDVCKNYAEAKDVFLGMFLYEYARRHPDYSVMLLLRLAKAYEATLEKCCAAADPHECYAKVFDEFQPLVEEPQNLVKQNCELFEQLGEYKFQNALLVRYTKKVPQVSTPTLVEVSRNLGKVGAKCCKLPEAKRMPCAEDYLSVVLNRLCVLHEKTPVSEKVTKCCTESLVNRRPCFSALELDEAYVPKAFNAETFTFHADMCTLSEKEKQVKKQTALVELVKHKPKATKEQLKGVMDNFAAFVEKCCKADDKEACFAEEGPKFVAASQAALA

Kd [4]: 102 nM
Kd [5]: 18 nM
Kd [6]: 2 nM
Kd [7]: 24 nM
Kd [8]: 34 nM
Kd [9]: 26 nM
Kd [10]: 7.8 nM
Kd [11]: 214 nM
Kd [12]: 35 nM
Kd [13]: 10 nM
Kd [14]: 11.8 nM
Kd [15]: 19 nM
Kd [16]: 161 nM
Kd [17]: 2.7 nM
B4: biotinylated cynomolgus FLT3 protein (receptor, cynomolgus monkey)
chain: NQDLPVIKCVLINHKNNDSSVGKSSSYPMVSESPEDLGCALRPQSAGTVYEAATVEVDVSASITLQVLVDTPGNISCLWVFKHSSLNCQPHFDVQNRGVVSMVILKMTETQAGEYLLFIQSEATNYTIVFTVSIRNTLLFTLRRPYFRKMENQDALVCISESVPEPIVEWVLCDSQGESCKEESPAVVKKEEKVLHELFGTDIRCCARNELGRECTRLFTIDLNQTPQTTLPQLFLKVGEPLWIRCKAVHVNHGFGLTWELENKALEEGSYFEMSTYSTNRTMIRILFAFVSSVARNDTGYYTCSSSKHPSQSALVTIVEKGFINATNSSEDYEIDQYEEFCFSVRFKAYPQIRCTWTFSRKAFPCEQKALDDGYSVSKFCNHKHQPGEYIFHAENGDAQFTKMFTLNIRRKPQVLAEASASQASCSSDGYPLPSWTWKKCSDKSPNCTEDIPEGVWNRKANRKVFGQWVSSSTLNMSEAMKGFLVKCCAYNSLGTSCETILLNSPGPFPFIQDS
modifications: biotinylated (sites not given)
notes: loaded on streptavidin Octet tips; also called Cynomolgus Monkey FLT3
